The values below come from article PMC12363408.

Assay [1] deals with amyloid precursor protein C99 (UniProt P05067). Briefly: SDS-PAGE with Western blot (SDS-stable oligomers); whole-cell expression samples of E. coli (0.8 OD600, autoinduction or IPTG), heated 4 min at 90°C in SDS dye, 4-20% gel, detected with antibody 6E10.
For assay [2] the target is unchanged. The assay is described as follows: SDS-PAGE with Western blot (SDS-stable oligomers); SEC fractions of Ni-purified C99 in E. coli lipid pentyl-inulin nanodiscs (detergent-free), heated in SDS dye, 4-20% gel, detected with antibody 6E10.

Values joined by “and” are separate entries in the source; they are usually repeats but may differ in a detail not shown here. Equal values may be shown once.

For “amyloid precursor protein C99 (from UniProt P05067 672-770) (domain or fragment)”, the stoichiometry N in assay [1] is 2 and 3; in assay [2], 3.
